Laboratory results published in article PMC9547787.

Columns and labels:
SUV39H2 = SUV39H2 (UniProt Q9H5I1); test: proximity ligation assay (PLA); conditions: MO3.13 cells; n: EV = 14; H3.1WT = 36; H3.1K27M = 67; H3.3WT = 60; H3.3K27M = 62; parent: est. 1.2; read off a plot
BAZ2A = test: BioID (streptavidin pulldown, LC-MS/MS); conditions: Flp-In T-Rex HEK293 cells; parent: est. 220; read off a plot
MECP2 = test: BioID (streptavidin pulldown, LC-MS/MS); conditions: Flp-In T-Rex HEK293 cells; parent: est. 17; read off a plot
MBD3 = test: BioID (streptavidin pulldown, LC-MS/MS); conditions: Flp-In T-Rex HEK293 cells; parent: est. 41; read off a plot
MBD4 = test: BioID (streptavidin pulldown, LC-MS/MS); conditions: Flp-In T-Rex HEK293 cells; parent: est. 14; read off a plot

Chain of UniProt Q9H5I1 (Q9H5I1 whole entry): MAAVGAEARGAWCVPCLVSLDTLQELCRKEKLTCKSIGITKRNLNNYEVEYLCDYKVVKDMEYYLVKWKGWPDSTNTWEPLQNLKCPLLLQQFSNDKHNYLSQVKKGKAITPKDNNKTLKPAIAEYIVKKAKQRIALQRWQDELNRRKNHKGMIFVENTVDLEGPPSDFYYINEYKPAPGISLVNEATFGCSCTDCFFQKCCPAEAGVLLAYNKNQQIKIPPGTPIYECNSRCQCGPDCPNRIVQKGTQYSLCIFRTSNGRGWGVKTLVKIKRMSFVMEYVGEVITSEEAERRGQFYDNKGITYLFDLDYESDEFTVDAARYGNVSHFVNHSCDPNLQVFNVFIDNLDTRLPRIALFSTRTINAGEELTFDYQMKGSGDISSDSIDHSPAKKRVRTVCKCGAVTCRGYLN

Q: With “H3.1WT-FLAG/HA (from UniProt P68431) K27M” as the substance, how does the response (relative foci (relative to H3.3WT)) (SUV39H2) read?
A: The response (relative foci (relative to H3.3WT)) was 0.54.

Q: For “H3.3WT (FLAG-BirA* fusion, BioID bait) (from UniProt P84243) G34R”, which response (peptide count) (BAZ2A) is on record?
A: Its response (peptide count) is 83.

Q: What about the response (peptide count) (MECP2) of the same substance?
A: The response (peptide count) was 4.1.

Q: And the response (peptide count) (MBD3)?
A: The response (peptide count) was 23.

Q: What about the response (peptide count) (MBD4) of the same substance?
A: The response (peptide count) was 13.
